Data taken from patent publication US20200239579A1 (Genmab, published 2020).

T1: human PD-L2 (full length, on CHO cells) (human, UniProt Q9BQ51 20-273)
T1 construct: whole, on cells; also called CHO-PD-L2 cells
T1 sequence (looked up): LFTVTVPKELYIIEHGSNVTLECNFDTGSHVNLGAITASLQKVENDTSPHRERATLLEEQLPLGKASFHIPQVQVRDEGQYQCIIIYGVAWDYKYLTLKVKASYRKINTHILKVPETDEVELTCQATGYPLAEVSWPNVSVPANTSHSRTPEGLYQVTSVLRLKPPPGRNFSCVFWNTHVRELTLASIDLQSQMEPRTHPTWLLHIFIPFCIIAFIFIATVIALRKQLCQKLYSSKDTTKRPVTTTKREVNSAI


How the values were obtained:
[1] = target: T1, human PD-L2 (full length, on CHO cells); assay: flow cytometry on CHO cells expressing human PD-L2
Experimental: (§1) Cells (3-5×10⁴ cells/well) were incubated in polystyrene 96-well round-bottom plates (Greiner bio-one, cat. no. 650101) with serial dilutions of antibodies (range 0.0001 to 10 μg/mL in 5-fold dilution steps) in 50 μL PBS/0.1% BSA/0.02% azide (staining buffer) at 4° C. for 30 min.
(§2) After washing twice in staining buffer, cells were incubated in 50 μL secondary antibody at 4° C. for 30 min. As a secondary antibody, R-Phycoerythrin (PE)-conjugated goat-anti-human IgG F(ab′)₂ (Cat. no. 109-116-098, Jackson ImmunoResearch Laboratories, Inc., West Grove, Pa.) diluted 1:500 in staining buffer, was used for all experiments. Next, cells were washed twice in staining buffer, re-suspended in 20 μL staining buffer and analyzed on an iQue screener (Intellicyt Corporation, USA). Binding curves were analyzed using non-linear regression (sigmoidal dose-response with variable slope) using GraphPad Prism V75.04 software (GraphPad Software, San Diego, Calif., USA).
A PE-conjugated PD-L2 specific antibody (Mylteni, clone MIH18; cat. no. 130-098-651) was used as positive control.

[2] = target: T2, human PD-L1 (full length, on cells) (human, UniProt Q9NZQ7 19-290); assay: flow cytometry on MDA-MB-231 cells, PE anti-human IgG secondary, MFI (PE)
T2 construct: The entry holds the signal peptide; also called CD274; B7H1
Experimental: as §1, §2

[3] = target: T3, cynomolgus monkey PD-L1 (full length, on CHO cells) (cynomolgus monkey (Macaca fascicularis), UniProt G7PSE7 19-290); assay: flow cytometry on CHO cells transfected with cynomolgus PD-L1, PE anti-human IgG secondary, MFI (PE)
T3 construct: whole, on cells; also called PDL1 Mf; cynomolgus PD-L1
Experimental: as §1, §2
Binding to CHO cells expressing cynomolgus PD-L1 was determined by flow cytometry using a method as described above.

[4] = target: T2, human PD-L1 (full length, on cells); assay: flow cytometry on HELA cells, PE anti-human IgG secondary, MFI (PE)
Experimental: as §1, §2

[5] = target: T2, human PD-L1 (full length, on cells); assay: flow cytometry on PC3 cells, PE anti-human IgG secondary, MFI (PE)
Experimental: as §1, §2

[6] = target: T2, human PD-L1 (full length, on cells); assay: flow cytometry on MDA-MB-231 cells, PE anti-human IgG secondary, MFI (PE); remark: listed apart in the source
Experimental: as §1, §2

[7] = target: T2, human PD-L1 (full length, on cells); assay: flow cytometry on HEK293 cells expressing wild type or alanine-mutant PD-L1

T2 sequence (Q9NZQ7 19-290 limits assumed): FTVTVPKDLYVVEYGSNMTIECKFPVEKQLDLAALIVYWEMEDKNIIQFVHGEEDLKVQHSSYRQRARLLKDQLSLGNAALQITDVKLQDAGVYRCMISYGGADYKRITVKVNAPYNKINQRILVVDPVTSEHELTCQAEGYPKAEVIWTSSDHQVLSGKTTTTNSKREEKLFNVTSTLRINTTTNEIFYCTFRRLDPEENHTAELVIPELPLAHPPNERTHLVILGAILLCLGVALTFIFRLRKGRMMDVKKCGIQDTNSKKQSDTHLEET
T3 sequence (G7PSE7 entry or part of it): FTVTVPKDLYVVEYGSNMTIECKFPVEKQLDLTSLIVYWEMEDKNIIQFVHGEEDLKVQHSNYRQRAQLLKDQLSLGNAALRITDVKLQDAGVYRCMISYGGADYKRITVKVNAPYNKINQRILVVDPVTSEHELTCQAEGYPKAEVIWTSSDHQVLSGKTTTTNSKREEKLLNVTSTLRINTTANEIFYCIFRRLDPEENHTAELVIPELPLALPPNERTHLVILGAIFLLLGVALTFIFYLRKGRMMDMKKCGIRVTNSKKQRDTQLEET

Binder | binding result [1] | EC50 (read off the curve) [2] [µg/mL] | EC50 (read off the curve) [3] [µg/mL] | EC50 (read off the curve) [4] [µg/mL] | EC50 (read off the curve) [5] [µg/mL] | EC50 (read off the curve) [6] [µg/mL] | binding result [7]
bsIgG1-huCD3-H1L1-FEAL×338-FEAR (bispecific antibody) heavy 1: not shown VL: not shown heavy 2: EVQVVESGGGLVQPGGSLRLSCAASGFTFSRFWMSWVRQAPGKGLEWVANIKQDGGEKYYVDSVKGRFTISRDNAKNSLYLQMNSLRGEDTAVYYCARDDNWNGHFDYWGQGTLVTVSSASTKGPSVFPLAPSSKSTSGGTAALGCLVKDYFPEPVTVSWNSGALTSGVHTFPAVLQSSGLYSLSSVVTVPSSSLGTQTYICNVNHKPSNTKVDKRVEPKSCDKTHTCPPCPAPEFEGGPSVFLFPPKPKDTLMISRTPEVTCVVVAVSHEDPEVKFNWYVDGVEVHNAKTKPREEQYNSTYRVVSVLTVLHQDWLNGKEYKCKVSNKALPAPIEKTISKAKGQPREPQVYTLPPSREEMTKNQVSLTCLVKGFYPSDIAVEWESNGQPENNYKTTPPVLDSDGSFFLYSRLTVDKSRWQQGNVFSCSVMHEALHNHYTQKSLSLSPGK light: DIQMTQSPSTLSASVGDRVTITCRASQSISSWLAWYQQKPGKAPNLLIYKASSLESGVPSRFSGSGSGTEFTLTISSLQPDDFATYYCQQYYGSYITFGQGTRLEIKRTVAAPSVFIFPPSDEQLKSGTASVVCLLNNFYPREAKVQWKVDNALQSGNSQESVTEQDSKDSTYSLSSTLTLSKADYEKHKVYACEVTHQGLSSPVTKSFNRGEC | no binding | ~0.1 | ~0.09 | ~0.02 | ~0.03 |  | 
bsIgG1-huCD3-H1L1-FEAL×547-FEAR (bispecific antibody) heavy 1: not shown VL: not shown heavy 2: EVQLLEPGGGLVQPGGSLRLSCEASGSTFSTYAMSWVRQAPGKGLEWVSGFSGSGGFTFYADSVRGRFTISRDSSKNTLFLQMSSLRAEDTAVYYCAIPARGYNYGSFQHWGQGTLVTVSSASTKGPSVFPLAPSSKSTSGGTAALGCLVKDYFPEPVTVSWNSGALTSGVHTFPAVLQSSGLYSLSSVVTVPSSSLGTQTYICNVNHKPSNTKVDKRVEPKSCDKTHTCPPCPAPEFEGGPSVFLFPPKPKDTLMISRTPEVTCVVVAVSHEDPEVKFNWYVDGVEVHNAKTKPREEQYNSTYRVVSVLTVLHQDWLNGKEYKCKVSNKALPAPIEKTISKAKGQPREPQVYTLPPSREEMTKNQVSLTCLVKGFYPSDIAVEWESNGQPENNYKTTPPVLDSDGSFFLYSRLTVDKSRWQQGNVFSCSVMHEALHNHYTQKSLSLSPGK light: SYVLTQPPSVSVAPGQTARITCGGNNIGSKSVHWYQQKPGQAPVLVVYDDNDRPSGLPERFSGSNSGNTATLTISRVEAGDEADYYCQVWDSSSDHVVFGGGTKLTVLGQPKAAPSVTLFPPSSEELQANKATLVCLISDFYPGAVTVAWKADSSPVKAGVETTTPSKQSNNKYAASSYLSLTPEQWKSHRSYSCQVTHEGSTVEKTVAPTECS | no binding |  | ~0.06 | ~0.02 | ~0.03 | ~0.08 | 
IgG1-625-FEAR-A488 (antibody, V domains shown, also called control antibody of the alanine scan) VH: HMQLVESGGGVAQPGRSLRLSCAASGFTFSNYGMHWVRQAPGRGLEWLAVMSYDGETKYYADSVKGRFTISRDNSENTLFLQMNSLRAEDTAVYYCAKDTSNGWNYYFYGMDVWGQGTTVTVSS VL: SYELTQPPSVSVSPGQTARITCSGDALPKKFASWYQQKSGQAPVLVIYEDSKRPSGIPERVSGSSSGTMATLTISGAQTEDEADYYCYSTDRSGYHWVFGGGTKLTVL |  |  |  |  |  |  | binds
